# According to the nanobody polyreactivity screen of Harvey et al. (2022):
# Experiment: yeast display, Sf9 membrane polyspecificity reagent, FACS + sequencing; frameworks hold sequencing errors
# Summary of the method: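 Using colony PCR, genes from sorted yeast display clones were amplified, then sequenced on MiSeq at 2 × 250 and filtered by CDR length. The clones had been stained with 10% biotinylated, detergent-solubilized Sf9 membrane reagent for 1 hour at 4 °C and sorted by FACS into low and high (top ~1%) gates on anti-HA and streptavidin fluorescence. Polyreactivity labels come from the gate of origin.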
row,Sequence,polyreactivity (PSR sort gate)
1,QVQLVESGGGLVQAGGSLRLSCAASGGTFYNYAMGWYRQAPGKERELVAAISTSGTSTYYADSVKGRFTISRDNAKNTVYLQMNSLKPEDTAVYYCAARGLRVSSRGYYWGQGTQVTVSS,high polyreactivity
2,QVQLVESGGGLVQAGGSLRLSCAASGGTFYRYAMGWYRQAPGKERELVAAISRGGSTTYADSVKGRFTISRDNAKNTVYLQMNSLKPEDTAVYYCAARYRCSLPAGLRLLGQGTQVTVSS,high polyreactivity
3,QVQLVESGGGLVQAGGSLRLSCAASGGTFYVNALGWYRQAAGKERELVAAISYSGGNTYYADSVKGRFTISRDNAKNTVYLQMNSLKPEDTAVYYCAGEVFPWWGDDYWGQGTQVTVSS,low polyreactivity
4,QVQLVESGGGLVQAGGSLRLSCAASGGTFYYYAMGWYRQAPGKERELVAAITRSGGNTYYADSVKGRFTISRDNAKNTVYLQMNSLKPEDTAVYYCAAPFVKFVGSLVYAGYDSWGQGTQVTVSS,low polyreactivity
5,QVQLVESGGGLVQAGGSLRLSCAASGGTIAFNGMGWYRQAPAKERELVAAITWRSGSTYYADSVKGRFTISRDNAKNTVYLQMNSLKPEDTAVYYCAARLYRYTPFDYWGQGTQVTVSS,high polyreactivity
6,QVQLVESGGGLVQAGGSLRLSCAASGGTIAPYAMVWYRQAPGKERELVATISYSGTSTNYADSVKGRFTITRDNAKNTVYLQMNSLKPEDTAVYYCYAVLYARQRDRWARYDYWGQGTQVTVSS,high polyreactivity
7,QVQLVESGGGLVQAGGSLRLSCAASGGTIDYAMGWYSQAPGKERELVAAISKHGGRTYYADSVKGRFTISRDNAKYTVYLQMNSLKPEDTAVYYCAADAFRGFYWGQGTQVTVSS,high polyreactivity
8,QVQLVESGGGLVQAGGSLRLSCAASGGTITPYAMGWYRQAPGKERELVAAISRSGARTYYADSVKGRFTISRDNAKNTVYLQMNSLKPEDTAVYYCAKTFSGYRFDYWGQGTQVTVSS,high polyreactivity
9,QVQLVESGGGLVQAGGSLRLSCAASGGTIVWNAMGWYRQAPGKEREFVAAITSSGGSTYYADSVKGRFTITRDYAKNTVYLQINSLKPEDTAVDYCNVDTHSSYEFNSWGQGTQVTVSS,low polyreactivity
10,QVQLVESGGGLVQAGGSLRLSCAASGGTLKYYAMGWYRQAPGKEREVVATISSRGGSTYYADSVKGRFTISRDNAKNTVYLQMNSLKPEDTAVYYCARRYWVQSRYPEMDYWGQGTQVTVSS,high polyreactivity
11,QVQLVESGGGLVQAGGSLRLSCAASGGTLVPNAMGWYRPAPGKERELVAGISGSGGSTYYADSVKGRFTISRDNAKNTVYLQMNSLKPEDTAVYYCNADRYVPYYEPEMDYWGQGTQVTVSS,low polyreactivity
12,QVQLVESGGGLVQAGGSLRLSCAASGGTVTYNAMGWYRQAPGKERELVAAITNGGGSTYYADSVKGRFTISRDYAKNTVYLQMNSLKPEDTAVYYCAARWWYYYTEYDYWGQGTQVTVSS,low polyreactivity
13,QVQLVESGGGLVQAGGSLRLSCAASGHIFFYYTMGWYRQAPGKERELVAGITIGGSTNYADSVKGRFTISRDNAKNTVYLQMNSLKPEDSAVYYCNVVKYVYIYSYWEYYYWGQGTQVTVSS,low polyreactivity
14,QVQLVESGGGLVQAGGSLRLSCAASGHIFSYYAMGWYRQAPGKERELVAAISSSGSSTYYADSVKGRFTISRDNAKNTVYLQMNSLKPEDTAVYYCNAPYIAWYDGDYWGQGTQVTVSS,low polyreactivity
15,QVQLVESGGGLVQAGGSLRLSCAASGHIFTRNSMGWYRQAPGKERELVAAISRTGGSTYYADSVKGRFTISRDNAKNTVYLQMNSLKPEDTAVYDCAKRRQASEDYWGQGTQVTVSS,high polyreactivity
16,QVQLVESGGGLVQAGGSLRLSCAASGHILFKYTMGWYRQAPGKERELVAAISRSGGTTYYADSVKGRFTISRDNAKNTVYLQMNSLKPEDTAVYYCAARVTPGRNGGGYWGQGTQVTVSS,high polyreactivity
17,QVQLVESGGGLVQAGGSLRLSCAASGHIYFYYTMGWYRQAPGKERDLVAGITIGGSTNYADSVKGRFTISRDNAKNTVYLQMNSLKPEDTAVYYCNVVKYVYIYSYWEYYYWGQGTQVTVSS,low polyreactivity
18,QVQLVESGGGLVQAGGSLRLSCAASGHIYVRYAMGWYRQAPGKERELVAAITSGGSTYYADSVKGRFTISRDNAKNTVYLQMNSLKPEDTAVYYCAARKQQYRFTHDYWGQGTQVTVSS,high polyreactivity
19,QVQLVESGGGLVQAGGSLRLSCAASGIAYTYNAMGWYRQAPGKERELVASISRTGGSTRYADSVKGRFTISRDNAKNTFYLQMNSLKPEDTAVYYCAALSWRYVKYRFDYWGQGTQVTVSS,high polyreactivity
20,QVQLVESGGGLVQAGGSLRLSCAASGIFIDSNAMGWNRQAPGKERELVAAITSGGSTKYADSVKGRFTISRDTAKNTVYLQMNSLKPVDTAVYYCNAGPAVRSAYSTPYYDYWGLGTQVTVSS,low polyreactivity
21,QVQLVESGGGLVQAGGSLRLSCAASGIFLVYAMGWYRQAPGKERELVAAIRSDASTNYADSVKWRFTISRDNAKKTVYLQMNILKPEDSAVYYCNTAQLVSDEFDYWGQGTQVTVSS,low polyreactivity
22,QVQLVESGGGLVQAGGSLRLSCAASGIFRSNTMGWYRQAPGKERELVATISRRSGSTYYADSVKGRFTISRDNAKNTVYLQMNSLKPEDTAVYYCAAAAPRRKYDYWGQGTQVTVSS,high polyreactivity
23,QVQLVESGGGLVQAGGSLRLSCAASGIFSHYALGWYRQAPGKERELVAAISSSGGRTYYADSVKGRFTISRDNAKNTVYLQMNSLKPEDTAVYYCAAPWRSSPYHFYYWGQGTQVTVSS,high polyreactivity
24,QVQLVESGGGLVQAGGSLRLSCAASGIFSRYAMGWYIQAPGKERELVAAISSGDSTNYADSVKGRFTISRDNAKNTVYLQMNSLKPEDTAVYYCATERSHLATGQGYYYVQTFYYWGQGTQVTVSS,low polyreactivity
25,QVQLVESGGGLVQAGGSLRLSCAASGIFSYYAMGWYRQAPGKERELVAAISSSGGSTYYADSVKGRFTISRDNAKNTVYLQMNSLKPEDTAVYYCNVRNYYNDYYYWGQGTQVTVSS,high polyreactivity
26,QVQLVESGGGLVQAGGSLRLSCAASGIFTRYVMGWYRQAPGKERELVAAITANGGRTYYADSVKGRFTISRDNAKNTVYLQMNSLKPEDTAVYYCNADWRWKWSSRGGYWGQGTQVTVSS,high polyreactivity
27,QVQLVESGGGLVQAGGSLRLSCAASGIFVGNAMGWYRQAPGKERELVAAITGDGDSTYYADSVKGRFTISRDNAKNTVYLQMNSLKPEDNAVYYCNTVFDTIVDKYYYWGQGTQVTVSS,low polyreactivity
28,QVQLVESGGGLVQAGGSLRLSCAASGIFVYYAMGWYRQAPGKERELVAAISSTGTSTYYADSVKGRFTISRDNAKNTVYLQMNSLKPEDTAVYYCAARGYAKRGYWGQGTQVTVSS,high polyreactivity
29,QVQLVESGGGLVQAGGSLRLSCAASGIHFRSNAMGWYRQAPGKERELVAAISGRGGRTYYADSVKGRFTISRDNAKNTVYLQMNSLKPEDTAVYYCARESYLGATYPKAYGPYYYWGQGTQVTVSS,high polyreactivity
30,QVQLVESGGGLVQAGGSLRLSCAASGIICWWNTMGWYRQAPGKERELVATITRGGSTYYADSVKGRFTISRDNAKNTVYLQMNSLKPEDTAVYYCNAVQYKYLAKSYDYWGQGTQVTVSS,low polyreactivity
